This note sets out measurements from patent publication EP4520771A2 (Genmab A/S, dated 2025).

The term EC50 denotes the midpoint of the concentration-response curve.

The target in assay [1] is T1, human epidermal growth factor receptor 2 (HER2) (human, UniProt P04626 23-1255). The assay is described as follows: cell-based or functional assay.
In assay [2] the target is T1, human epidermal growth factor receptor …. The assay is described as follows: cell-based or functional assay. The source holds these as a separate data set.
For assay [3] the target is unchanged. Kind of assay: flow cytometry on A431 cells.
The target is the same in assay [4]. Kind of assay: flow cytometry on AU565 cells. On the technique in general: Flow cytometry measures light scatter and fluorescence of single cells or particles in a stream.
Assay [5] shares this target. The assay is described as follows: cell-based or functional assay. The source holds these as a separate data set.
The target is the same in assay [6]. Kind of assay: cell-based or functional assay. The source holds these as a separate data set.
For assay [7] the target is unchanged. Kind of assay: cell-based or functional assay. The source holds these as a separate data set.

Like-named read-outs stand apart in the source and are kept apart here.

B1: HER2 antibody 159 (antibody, V domains shown)
VH: EVQLVQSGAEVKKPGESLKISCKGSGYNFTSYWIGWVRQMPGKGLEWMGIIYPGDSDTRYSPSFQGQVTISADKSISTAYLQWSSLKASDTAMYYCARWGTYYDILTGYFNWFDPWGQGTLVTVSS
VL: DIQMTQSPSSLSASVGDRVTITCRASQGISSWLAWYQQKPEKAPKSLIYAASSLQSGVPSRFSGSGSGTDFTLTISSLQPEDFATYYCQQYYIYPWTFGQGTKVEIK
In the case of B1, in assay [1], the “% cells killed (maximal), AU565 cells, anti-kappa-ETA'-conjugated antibody” value (shortened to “% cells killed (maximal), AU565 cells”) is 70.3% and the “EC50 of AU565 cell kill, anti-kappa-ETA'-conjugated antibody” value (shortened to “EC50 of AU565 cell kill”) turned out to be 0.0349 mg/L.

B2: HER2 antibody 153 (antibody, V domains shown)
VH: QVQLVESGGGVVQPGRSLRLSCAASGFTFSDYVIHWVRQAPGKGLEWVTVISYDGSNKYYADSVKGRFTISRDNSKNTLYLQMNSLSAEDTAMYYCARGGITGTTGVFDYWGQGTLVTVSS
VL: DIQMTQSPSSLSASVGDRVTITCRASQGISSWLAWYQQKPEKAPKSLIYDASSLQSGVPSRFSGSGYGTDFSLTISSLQPEDFAIYYCQQYKSYPITFGQGTRLEIK
Consider B2, for which, in assay [2], the “% cells killed (maximal), A431 cells, anti-kappa-ETA'-conjugated antibody” value (“% cells killed (maximal), A431 cells” for short) came to 82.4% and the “EC50 of A431 cell kill, anti-kappa-ETA'-conjugated antibody” value (shortened to “EC50 of A431 cell kill”) is about 0.0101 mg/L. In assay [1], the “% cells killed (maximal), AU565 cells” value is 60.3% and the “EC50 of AU565 cell kill” value turned out to be 0.0323 mg/L.

B3: HER2 antibody 025 (antibody, V domains shown)
VH: QVQLQQWGAGLLKPSETLSLTCAVYGGSFSDYYWNWIRQPPGKGLEWIGEIHHSGSTNYNPSLKSRVTISVDTSKNQFSLKLSSVTAADTAVYYCARGYYDSGVYYFDYWAQGTLVTVSS
VL: DIQMTQSPSSLSASVGDRVTITCRASQGISRWLAWYQQKPEKAPKSLIYAASSLRSGVPSRFSGSGSGTDFTLTISSLQPEDFATYYCQQYNSYPITFGQGTRLEIK
notes: also called HuMab-025; PC1014-025
B3: the binding result in assay [3] is recorded as “binds”. In addition, in assay [2], the “% cells killed (maximal), A431 cells” value is 86.7% and the “EC50 of A431 cell kill” value was about 0.00977 mg/L. Further, in assay [1], the “% cells killed (maximal), AU565 cells” value amounted to 60% and the “EC50 of AU565 cell kill” value turned out to be 0.0167 mg/L.

B4: HER2 antibody 091 (antibody, V domains shown)
VH: QVQLQQWGAGLLKPSETLSLTCAVSGGSFSGYYWTWIRQPPGKGLEWIGEIYHSGDTNYNPSLKSRVTISVDTSKNQFSLKLYSVTAADTAVYYCARLYFGSGIYYLDYWGQGTLVTVSS
VL: DIQMTQSPSSLSASVGDRVTITCRASQGISSWLVWYQQKPEKAPKSLIYAASSLQSGVPSRFSGSGSGTDFTLTISSLQPEDFATYYCQQYNSFPPTFGQGTKVEIK
Take B4: in assay [2], the “% cells killed (maximal), A431 cells” value was 83.3% and the “EC50 of A431 cell kill” value was about 0.00986 mg/L. In assay [1], the “% cells killed (maximal), AU565 cells” value was found to be 50.6% and the “EC50 of AU565 cell kill” value amounted to 0.0465 mg/L.

B5: HER2 antibody 098 (antibody, V domains shown)
VH: EVQLLESGGGLVQPGGSLRLSCAASGFTFSNYGMSWVRQAPGKGLEWVSAISGSAYSTYYADSVKGRFTISRDNSKNTLWLQMNSLRAEDTAVYYCAKAHYHGSGSYYTLFDYWGQGTLVTVSS
VL: DIQMTQSPSSLSASVGDRVTITCRASQGISSWLAWYQQKPEKAPKSLIYAASSLQSGVPSRFSGSGSGTDFTLTISSLQPEDFATYYCQQYNSYPYTFGQGTKLEIK
notes: also called PC1014-098; TH1014-098
In the case of B5, the EC50 in assay [3] amounted to 0.068 mg/L. For the same molecule, in assay [2], the “% cells killed (maximal), A431 cells” value is 87.2% and the “EC50 of A431 cell kill” value was determined as 0.00165 mg/L. The molecule also registered an EC50 in assay [4] of 0.336 mg/L. In addition, in assay [1], the “% cells killed (maximal), AU565 cells” value worked out at 58.7% and the “EC50 of AU565 cell kill” value is 0.0121 mg/L.

B6: HER2 antibody 059 (antibody, V domains shown)
VH: QVQLVQSGAEVKKPGASVRVPCKASGYTFTRYGISWVRQAPGQGLEWMGWISAYNGKTYYAQKLQGRVTMTTDTSTSTAYMELRSLRSDDTAVYYCARSPLLWFEELYFDYWGQGTLVTVSS
VL: EIVLTQSPGTLSLSPGERATLSCRASQSVSSTYLAWYQQKPGQAPRLLIYGASSRATGIPDRFSGSGSGTDFTLTISRLEPEDFAVYYCQQYGTSLFTFGPGTKVDIK
With B6, in assay [5], the “% cells killed (maximal), AU565 cells” value came to 67% and the “EC50 of AU565 cell kill” value turned out to be 0.0677 mg/L.

B7: HER2 antibody 132 (antibody, V domains shown)
VH: QVQLVQSGAEVKKPGASVKVSCKASGYTFTSYGISWVRQAPGQGLEWMGWISAYNGNSNYVQKFQGRVTMTTDTTTSTAYMELRSLTSDDTAVYYCAREYSYDSGTYFYYGMDVWGQGTTVTVSS
VL: EIVLTQSPATLSLSPGERATLSCRASQSVSSYLAWYQQKPGQAPRLLIYDASNRATGIPARFSGSGSGTDFTLTISSLEPEDFAVYYCQQRSNWPMYTFGQGTKLEIK
Turning to B7, in assay [1], the “% cells killed (maximal), AU565 cells” value was found to be 61.6% and the “EC50 of AU565 cell kill” value came to 0.0394 mg/L.

B8: HER2 antibody 005 (antibody, human IgG1, V domains shown)
VH: EVQLVQSGAEVKKPGESLKISCKASGYSFHFYWIGWVRQMPGKGLEWMGSIYPGDSDTRYRPSFQGQVTISADKSISTAYLQWTSLKASDTAIYYCARQRGDYYYFYGMDVWGQGTTVTVSS
VL: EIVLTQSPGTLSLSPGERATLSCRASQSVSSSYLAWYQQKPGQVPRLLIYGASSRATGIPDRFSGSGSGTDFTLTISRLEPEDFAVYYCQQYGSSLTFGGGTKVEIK
notes: human IgG1,κ; also called HuMab 005; PC1014-005
Turning to B8, in assay [5], the “% cells killed (maximal), AU565 cells” value is 69.7% and the “EC50 of AU565 cell kill” value was found to be 0.0151 mg/L. In assay [3], the binding result is reported as “binds”. Besides, the “EC50 of A431 cell kill” value in assay [6] was about 0.0101 mg/L.

B9: HER2 antibody 127 (antibody, V domains shown)
VH: EVQLVQSGAEVKKPGESLTISCKGSGYSFSIYWIGWVRQMPGKGLEWMGIIFPGDSDIRYSPSFQGQVTISADKSISTAYLQWSSLKASDTAMYYCARQPGDWSPRHWYFDLWGRGTLVTVSS
VL: VIWMTQSPSLLSASTGDRVTISCRMSQGISSYLAWYQQKPGKAPELLIYAASTLQSGVPSRFSGSGSGTDFTLTISYLQSEDFATYYCQQYYSFPLTFGGGTKVEIK
Turning to B9, in assay [1], the “% cells killed (maximal), AU565 cells” value was 69% and the “EC50 of AU565 cell kill” value was 0.0345 mg/L.

B10: HER2 antibody 106 (antibody, V domains shown)
VH: EVQLVQSGAEVKKPGESLKISCKGSGYSFTRYWIGWVRQMPGKGLEWMGIIYPGDSDTRYSPSFQGQVTISADKSISTAYLQWSSLKASDTAMYYCARLTGDRGFDYYSGMDVWGQGTTVTVSS
VL: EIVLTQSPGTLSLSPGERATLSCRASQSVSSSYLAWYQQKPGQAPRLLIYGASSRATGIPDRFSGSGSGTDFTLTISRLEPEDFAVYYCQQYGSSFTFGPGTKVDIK
In the case of B10, in assay [5], the “% cells killed (maximal), AU565 cells” value was found to be 59.1% and the “EC50 of AU565 cell kill” value turned out to be 0.108 mg/L.

B11: HER2 antibody 129 (antibody, V domains shown)
VH: QVQLVESGGGVVQPGRSLRLSCAASGFTFSTFAIHWVRQAPGKGLEWVAVISYDGGHKFYADSVKGRFTISRDNSKNTLYLQMNSLRAEDTAMYYCARGLGVWGAFDYWGQGTLVTVSS
VL: EIVLTQSPATLSLSPGERATLSCRASQSVSSYLAWYQQKPGQAPRLLIYDASNRATGIPARFSGSGSGTDFTLTISSLEPEDFAVYYCQQRSNWWTFGQGTKVEIK
Take B11: in assay [2], the “% cells killed (maximal), A431 cells” value is 75.9% and the “EC50 of A431 cell kill” value is about 0.0106 mg/L. In addition, in assay [1], the “% cells killed (maximal), AU565 cells” value turned out to be 60.8% and the “EC50 of AU565 cell kill” value is 0.0309 mg/L.

B12: HER2 antibody 084 (antibody, V domains shown)
VH: QVQLVQSGAEVKKPGSSVKVSCKASGGTFRTYAINWVRQAPGQGLEWMGRINTVLGIVNHAQKFQGRVTITADKSTNTAYMELNSLRSEDTAVYYCAREKGVDYYYGIEVWGQGTTVTVSS
VL: DIQMTQSPSSVSASVGDRVTITCRASQGISSWLAWYQHKPGKAPKLLIYVASTLQSGVPSRFSGSGSGTDFTLTISSLQPEDFATYYCQQANSFPLTFGGGTKVEIK
B12: in assay [2], the “% cells killed (maximal), A431 cells” value amounted to 50.5%. In addition, in assay [1], the “% cells killed (maximal), AU565 cells” value worked out at 58.1% and the “EC50 of AU565 cell kill” value is 0.027 mg/L.

B13: HER2 antibody 050 (antibody, V domains shown)
VH: EVQLLESGGGLVQPGGSLRLSCAASGFTFSSYAMNWVRQAPGKGLEWVSAISGRGGTTYYADSVKGRFTISRDNSKNTLYLQMSSLRAEDTAVYYCAKARANWDYFDYWGQGTLVTVSS
VL: DIQMTQSPSSVSASVGDRVTITCRASQGISSWLAWYQHKPGKAPKLLIYAASILQSGVPSRFSGSGSGTDFTLTISSLQPEDFATYYCQQANSFPITFGQGTRLEIK
Turning to B13, in assay [1], the “% cells killed (maximal), AU565 cells” value was 52.4% and the “EC50 of AU565 cell kill” value worked out at 0.0127 mg/L.

B14: HER2 antibody 111 (antibody, V domains shown)
VH: QVQLVQSGAEVKKPGSSVKVSCKASGGTFSSYGISWVRQAPGPGLEWMGRIIPILGIANYAQKFQGRVTITADKSTNTAYMELSSLRSEDTAVYYCARDQEYSSNWYYWGQGTLVTVSS
VL: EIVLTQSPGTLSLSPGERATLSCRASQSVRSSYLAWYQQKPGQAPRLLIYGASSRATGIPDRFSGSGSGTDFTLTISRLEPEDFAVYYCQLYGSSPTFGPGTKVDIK
With B14, in assay [5], the “% cells killed (maximal), AU565 cells” value amounted to 72% and the “EC50 of AU565 cell kill” value worked out at 0.0242 mg/L. For the same molecule, in assay [7], the “EC50 of A431 cell kill” value was about 0.01 mg/L.

B15: HER2 antibody 169 (antibody, V domains shown)
VH: QVQLVQSGAEVKKPGASVKVSCKASGYTFTNYGISWVRQAPGQGLEWMGWLSAYSGNTIYAQKLQGRVTMTTDTSTTTAYMELRSLRSDDTAVYYCARDRIVVRPDYFDYWGQGTLVTVSS
VL: EIVLTQSPATLSLSPGERATLSCRASQSVSSYLAWYQQKPGQAPRLLIYDASNRATGIPARFSGSGSGTDFTLTISSLEPEDFAVYYCQQRSNWPRTFGQGTKVEIK
With B15, the “% cells killed (maximal), A431 cells” value in assay [2] came to 34%. Further, in assay [1], the “% cells killed (maximal), AU565 cells” value was 49.9% and the “EC50 of AU565 cell kill” value worked out at 0.0356 mg/L.

B16: HER2 antibody 060 (antibody, V domains shown)
VH: EVQLVQSGAEVKKPGESLKISCKGSGYRFTSYWIGWVRQMPGKGLEWMGSIYPGDSYTRNSPSFQGQVTISADKSIATAYLQWNSLKASDTAMYYCARHAGDFYYFDGLDVWGQGTTVTVSS
VL: not shown
On to B16, for which, in assay [5], the “% cells killed (maximal), AU565 cells” value is 64.3% and the “EC50 of AU565 cell kill” value is 0.0794 mg/L. The “EC50 of A431 cell kill” value in assay [6] was about 0.01 mg/L.
